The record followed here is doi:10.1101/2024.05.29.596450v1.

Substrate in the data set: O=C(Cc1cccs1)N[C@@H]1C(=O)N2C(C(=O)O)=C(/C=C/c3ccc([N+](=O)[O-])cc3[N+](=O)[O-])CS[C@H]12
In words: purified protein. As to conditions: nitrocefin 50-200 μM, phosphate buffer pH 7.4.

B1: PBP2a (Staphylococcus aureus) (protein)
chain: YASKDKEINNTIDAIEDKNFKQVYKDSSYISKSDNGEVEMTERPIKIYNSLGVKDINIQDRKIKKVSKNKKRVDAQYKIKTNYGNIDRNVQFNFVKEDGMWKLDWDHSVIIPGMQKDQSIHIENLKSERGKILDRNNVELANTGTAYEIGIVPKNVSKKDYKAIAKELSISEDYIKQQMDQKWVQDDTFVPLKTVKKMDEYLSDFAKKFHLTTNETESRNYPLEKATSHLLGYVGPINSEELKQKEYKGYKDDAVIGKKGLEKLYDKKLQHEDGYRVTIVDDNSNTIAHTLIEKKKKDGKDIQLTIDAKVQKSIYNNMKNDYGSGTAIHPQTGELLALVSTPSYDVYPFMYGMSNEEYNKLTEDKKEPLLNKFQITTSPGSTQKILTAMIGLNNKTLDDKTSYKIDGKGWQKDKSWGGYNVTRYEVVNGNIDLKQAIESSDNIFFARVALELGSKKFEKGMKKLGVGEDIPSDYPFYNAQISNKNLDNEILLADSGYGQGEILINPVQILSIYSALENNGNINAPHLLKDTKNKVWKKNIISKENINLLTDGMQQVVNKTHKEDIYRSYANLIGKSGTAELKMKQGETGRQIGWFISYDKDNPNMMMAINVKDVQDKGMASYNAKISGKVYDELYENGNKKYDIDE
One may read the Km as the substrate concentration at which the rate is half of its maximum. What is called kcat is the number of substrate molecules converted per active site and unit of time at saturation. For B1, the Km amounted to 29.28 µM and the kcat came to 259.1 s⁻¹.
